Results published in publication doi:10.1101/2020.01.17.910273, “Ribosome association primes the stringent factor Rel for recruitment of deacylated tRNA to ribosomal A-site”.

Experiments:
Assay in all cases: EMSA; EMSA: HEPES:Polymix buffer, 5 mM Mg2+, 0.1 uM tRNA or mRNA(MVF), with or without 1 uM mRNA(MVF) competitor, 5 min at 37 C; pH not in material
Conditions in all cases: protein: recombinant; single strand
[1] = target: Rel (Bacillus subtilis, UniProt O54408 1-734)
[2] = target: Rel TGS-Helical (Bacillus subtilis, UniProt O54408 374-583)
[3] = target: Rel NTD (Bacillus subtilis, UniProt O54408 1-373)
Chain of Rel NTD (O54408 1-373): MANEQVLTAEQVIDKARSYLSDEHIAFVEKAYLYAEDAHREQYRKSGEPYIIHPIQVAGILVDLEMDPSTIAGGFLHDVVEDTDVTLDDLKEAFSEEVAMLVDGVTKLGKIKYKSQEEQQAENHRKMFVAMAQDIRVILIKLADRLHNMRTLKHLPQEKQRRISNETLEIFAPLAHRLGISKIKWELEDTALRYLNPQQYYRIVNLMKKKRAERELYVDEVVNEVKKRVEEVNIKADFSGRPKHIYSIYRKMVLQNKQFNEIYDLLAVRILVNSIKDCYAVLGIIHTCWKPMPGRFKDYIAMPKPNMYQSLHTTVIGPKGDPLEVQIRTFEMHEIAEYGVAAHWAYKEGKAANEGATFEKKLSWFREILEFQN

Chain of Rel TGS-Helical (O54408 374-583): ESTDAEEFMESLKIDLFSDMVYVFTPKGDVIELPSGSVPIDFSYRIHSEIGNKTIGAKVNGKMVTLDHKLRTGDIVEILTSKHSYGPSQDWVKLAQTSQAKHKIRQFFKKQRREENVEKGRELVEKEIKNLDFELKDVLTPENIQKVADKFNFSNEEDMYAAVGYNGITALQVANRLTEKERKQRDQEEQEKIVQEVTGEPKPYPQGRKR
Chain of Rel (O54408 whole entry): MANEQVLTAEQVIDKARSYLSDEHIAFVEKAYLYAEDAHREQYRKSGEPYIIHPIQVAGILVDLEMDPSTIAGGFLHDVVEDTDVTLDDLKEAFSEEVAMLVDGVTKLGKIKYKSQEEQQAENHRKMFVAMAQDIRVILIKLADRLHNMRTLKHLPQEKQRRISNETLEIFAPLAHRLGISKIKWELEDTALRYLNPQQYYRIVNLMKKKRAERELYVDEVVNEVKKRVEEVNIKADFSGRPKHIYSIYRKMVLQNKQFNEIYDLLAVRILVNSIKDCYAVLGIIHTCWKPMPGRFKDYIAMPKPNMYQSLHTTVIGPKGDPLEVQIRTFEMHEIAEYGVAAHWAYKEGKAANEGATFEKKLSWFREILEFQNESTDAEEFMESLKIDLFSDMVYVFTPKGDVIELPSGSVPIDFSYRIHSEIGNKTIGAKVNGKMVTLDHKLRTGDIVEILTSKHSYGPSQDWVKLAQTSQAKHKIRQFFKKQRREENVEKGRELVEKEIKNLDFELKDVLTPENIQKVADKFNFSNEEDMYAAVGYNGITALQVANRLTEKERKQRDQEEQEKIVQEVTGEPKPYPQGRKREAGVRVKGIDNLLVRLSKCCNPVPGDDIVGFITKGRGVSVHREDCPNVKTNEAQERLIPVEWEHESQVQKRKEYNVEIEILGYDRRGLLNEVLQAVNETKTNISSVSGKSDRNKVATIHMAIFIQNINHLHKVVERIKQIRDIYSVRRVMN

GGCAAGGAGGAGAUAAGAAUGGUUUUCUAAUA (ssRNA) [mRNA(MVF)]
apparent K (half saturation) [1]: 490 ± 10 nM
binding result [2]: no binding
apparent K (half saturation) [3]: 680 ± 30 nM
